Reference: paper PMC4887326, “Structural insights into the regulatory mechanism of the Pseudomonas aeruginosa YfiBNR system” (Protein & Cell, 2016)

B3: YfiR (residues 35–190), co-expressed with YfiB (domain or fragment, P. aeruginosa, UniProt Q9I4L4 35-190, looked up)
chain: DDARTSIEQRSNAVSQVLLGIFSYVRWPKEPAVLQLCVVGPTEYADGLLRGMVQANGRRVHAERRAVDNPDLGTLCNVIYLGVVDERERQQVFRSLAGHPVLSISERGTECSVGSMFCLNVGGPRITFEANLDSIARSGVRVHPSVLKLARRQATP
notes: YfiR, P. aeruginosa, residues 35-190, lacking the signal peptide; ORF1 of pETDuet-1 with N-terminal His6 and a TEV cleavage site; Dimer in the 2:2 complex; only the Cys145-Cys152 disulfide is well formed there; not shown: His6, N-terminal, kept

Tests used:
[1] = molecular target: the molecule itself; assay: AUC; sedimentation velocity, 25°C, samples at OD280 of 0.7 in 20 mmol/L Tris pH 8.0, 200 mmol/L NaCl, 60,000 rpm; dimer to monomers
[2] = molecular target: B3; assay: crystal structure; YfiB^L43P-YfiR complex, space group P1, 1.78 Å, 2:2 heterotetramer in the asymmetric unit; 0.2 mol/L ammonium sulfate, 0.1 mol/L Tris-HCl pH 8.0, 12% PEG 8000, 293 K; conditions: both partners purified
[3] = molecular target: the molecule itself; assay: as above
[4] = molecular target: the molecule itself; assay: crystal structure; VB6-bound (soaked, 2.4 Å) and Trp-bound (co-crystallised, 2.5 Å) YfiR, space group P4_3 2_1 2, a dimer in the asymmetric unit

B1: YfiB (residues 34–168), wild type (domain or fragment)
chain: GLSAEQIAVLQEQGFELRDEGWEFGMSSKVLFGNNLDRLNPDSRNTLTKIARALLAVDIDKVRLEGHTDNYGDEGYNQKLSERRAESVAAVFREAGMPAANIEVRGLGMSKPVADNKTRAGRSENRRVAIIVPAE
notes: YfiB, P. aeruginosa, residues 34-168, lacking the signal peptide (residues 1-26) and periplasmic residues 27-33; ORF1 of pETDuet-1 with N-terminal His6 and a TEV cleavage site; no cleavage of the tag is told for YfiB; Monomer and dimer in solution (AUC); also called wild-type YfiB; apo YfiB
stoichiometry N [1]: 2

B2: YfiB^L43P (residues 34–168), co-expressed with YfiR (domain or fragment)
chain: GLSAEQIAVPQEQGFELRDEGWEFGMSSKVLFGNNLDRLNPDSRNTLTKIARALLAVDIDKVRLEGHTDNYGDEGYNQKLSERRAESVAAVFREAGMPAANIEVRGLGMSKPVADNKTRAGRSENRRVAIIVPAE
notes: YfiB, P. aeruginosa, residues 34-168, with L43P; residues 44-168 are visible in the complex structure; Two copies in the 2:2 heterotetramer, separated from each other
stoichiometry N [2]: 1 YfiB per YfiR (printed as 2:2)

B3
binding result [3]: binds

B4: YfiR (residues 35–190), purified alone (domain or fragment, P. aeruginosa, UniProt Q9I4L4 35-190, looked up)
chain: DDARTSIEQRSNAVSQVLLGIFSYVRWPKEPAVLQLCVVGPTEYADGLLRGMVQANGRRVHAERRAVDNPDLGTLCNVIYLGVVDERERQQVFRSLAGHPVLSISERGTECSVGSMFCLNVGGPRITFEANLDSIARSGVRVHPSVLKLARRQATP
notes: YfiR, P. aeruginosa, residues 35-190, lacking the predicted N-terminal periplasmic localization signal peptide; also called native YfiR; not shown: His6, N-terminal, cleaved
binding result [4]: binds
